According to US20230365641A1:

Legend:
[1] = molecular target: PD-1 (antigen of the ELISA and of the in vitro affinity measurement) (UniProt Q15116); assay: ELISA; parameters: Bmax: unit not given here
hPD1-mFc (human) = assay: kinetic binding table: huPDL1-hFc captured as ligand (capture level 53.4 RU), hPD1-mFc as sample; method not given
Chain of hPD1-mFc (human) (Q15116 25-170): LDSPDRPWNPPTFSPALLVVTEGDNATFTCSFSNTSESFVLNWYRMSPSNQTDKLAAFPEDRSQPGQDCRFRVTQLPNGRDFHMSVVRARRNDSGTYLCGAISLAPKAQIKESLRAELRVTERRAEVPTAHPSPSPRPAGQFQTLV

Chain of PD-1 (antigen of the ELISA and of the in vitro affinity measurement) (Q15116 25-167 limits assumed): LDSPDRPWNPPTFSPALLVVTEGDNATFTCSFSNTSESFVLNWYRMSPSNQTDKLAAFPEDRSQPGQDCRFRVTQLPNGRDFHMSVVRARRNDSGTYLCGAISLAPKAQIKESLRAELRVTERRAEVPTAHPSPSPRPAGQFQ

Substance	Bmax [1]	Kd [1]	Kd (hPD1-mFc (human))	koff (hPD1-mFc (human))	kon (hPD1-mFc (human))
XR034 (Pembro IgG) (antibody)	1.37	0.32 nM			
huPDL1-hFc (from UniProt Q9NZQ7) (Fc fusion)			74.1 nM	0.025 s⁻¹	338000 M⁻¹ s⁻¹
